Results on one substance are retold here after article PMC4423232.

One may read the Kd as a measure of binding affinity in units of concentration. A higher Kd goes with weaker binding. What is called koff is a measure of how fast the partners let go of each other. In general, kon refers to the rate constant with which the complex forms.

For test [1], the target named is optimized version of the ectodomain of human Fcγ receptor I (hFcγRI, CD64), residues Gln16 to Val289, hexa-histidine tag at the C-terminus (human) (UniProt P12314). As to the kind of experiment: SPR; temperature dependence of KD, van't Hoff approximation; hFcγRI on the surface, Fc or IgG1 as analyte.
For test [2] the target is unchanged. The experiment in a line: SPR; method #1: Biacore T200, hFcγRI captured by its C-terminal hexa-histidine on a Ni-NTA chip (~550 RU for Fc, ~220 RU for IgG), Fc or IgG1 as analyte, PBS with 0.005% Tween-20, 25 °C, 1:1 Langmuir global fit, KD from the rate constants. On the technique in general: Surface plasmon resonance follows binding to a sensor surface in real time, without labels.

The substance “Fc fragment of the humanized IgG1 monoclonal antibody rituximab (from UniProt P01857 107-328) (domain or fragment)” came in with a dH (van't Hoff) in test [1] of -26.8 kcal/mol. Further, in test [2], the Kd is 4.2 nM, the off-rate constant (koff) amounted to 0.00011 s⁻¹ and the on-rate constant (kon) was determined as 27000 M⁻¹ s⁻¹.
